Assay results: publication PMC5770965, “pKID Binds to KIX via an Unstructured Transition State with Nonnative Interactions” (Biophysical Journal, 2017)
Non-standard residues stand in square brackets, D forms with d. No end group written: not given here. *: point of attachment. FITC = O=C1OC2(c3ccc(O)cc3Oc3cc(O)ccc32)c2ccc(NC(=S)*)cc21; pS = N[C@@H](COP(=O)(O)O)C(=O)O

B1: FITC-pKID I137A (peptide, UniProt P15337-1 116-146, looked up)
peptide: {FITC}-DSVTDSQKRREILSRRP[pS]YRKALNDLSSDAP
notes: source: synthetic peptide, bought: Biomatik
B2: FITC-pKID L128A (peptide, UniProt P15337-1 116-146, looked up)
peptide: {FITC}-DSVTDSQKRREIASRRP[pS]YRKILNDLSSDAP
notes: as for B1
B3: FITC-pKID Y134A (peptide, UniProt P15337-1 116-146, looked up)
peptide: {FITC}-DSVTDSQKRREILSRRP[pS]ARKILNDLSSDAP
notes: as for B1
B4: FITC-pKID L138A (peptide, UniProt P15337-1 116-146, looked up)
peptide: {FITC}-DSVTDSQKRREILSRRP[pS]YRKIANDLSSDAP
notes: as for B1
B5: FITC-pKID T119G (peptide, UniProt P15337-1 116-146, looked up)
peptide: {FITC}-DSVGDSQKRREILSRRP[pS]YRKILNDLSSDAP
notes: the peptide has Gly in place of the natural Thr119; also called A119G; source: synthetic peptide, bought: Biomatik
B6: FITC-pKID S143A (peptide, UniProt P15337-1 116-146, looked up)
peptide: {FITC}-DSVTDSQKRREILSRRP[pS]YRKILNDLSADAP
notes: as for B1
B7: FITC-pKID P132A (peptide, UniProt P15337-1 116-146, looked up)
peptide: {FITC}-DSVTDSQKRREILSRRA[pS]YRKILNDLSSDAP
notes: as for B1
B8: FITC-pKID K136G (peptide, UniProt P15337-1 116-146, looked up)
peptide: {FITC}-DSVTDSQKRREILSRRP[pS]YRGILNDLSSDAP
notes: also called A136G; source: synthetic peptide, bought: Biomatik
B9: FITC-pKID E126G (peptide, UniProt P15337-1 116-146, looked up)
peptide: {FITC}-DSVTDSQKRRGILSRRP[pS]YRKILNDLSSDAP
notes: also called A126G; source: synthetic peptide, bought: Biomatik
B10: FITC-pKID S143G (peptide, UniProt P15337-1 116-146, looked up)
peptide: {FITC}-DSVTDSQKRREILSRRP[pS]YRKILNDLSGDAP
notes: the text prints S143G; also called A143G; source: synthetic peptide, bought: Biomatik
B11: FITC-pKID R135A (peptide, UniProt P15337-1 116-146, looked up)
peptide: {FITC}-DSVTDSQKRREILSRRP[pS]YAKILNDLSSDAP
notes: as for B1
B12: FITC-pKID K136A (peptide, UniProt P15337-1 116-146, looked up)
peptide: {FITC}-DSVTDSQKRREILSRRP[pS]YRAILNDLSSDAP
notes: as for B1
B13: FITC-pKID R135G (peptide, UniProt P15337-1 116-146, looked up)
peptide: {FITC}-DSVTDSQKRREILSRRP[pS]YGKILNDLSSDAP
notes: also called A135G; source: synthetic peptide, bought: Biomatik
B14: FITC-pKID P132G (peptide, UniProt P15337-1 116-146, looked up)
peptide: {FITC}-DSVTDSQKRREILSRRG[pS]YRKILNDLSSDAP
notes: also called A132G; source: synthetic peptide, bought: Biomatik
B15: FITC-pKID E126A (peptide, UniProt P15337-1 116-146, looked up)
peptide: {FITC}-DSVTDSQKRRAILSRRP[pS]YRKILNDLSSDAP
notes: as for B1
B16: FITC-pKID T119A (peptide, UniProt P15337-1 116-146, looked up)
peptide: {FITC}-DSVADSQKRREILSRRP[pS]YRKILNDLSSDAP
notes: as for B1
B17: FITC-pKID wild-type (CREB residues 116-146, phosphorylated at Ser133) (peptide, UniProt P15337-1 116-146, looked up)
peptide: {FITC}-DSVTDSQKRREILSRRP[pS]YRKILNDLSSDAP
notes: also called wtFITCpKID; source: synthetic peptide, bought: Biomatik
B18: FITC-pKID L138A (peptide, UniProt P15337-1 116-146, looked up)
peptide: {FITC}-DSVTDSQKRREILSRRP[pS]YRKIANDLSSDAP
notes: as for B1
B19: FITC-pKID R124A (peptide, UniProt P15337-1 116-146, looked up)
peptide: {FITC}-DSVTDSQKAREILSRRP[pS]YRKILNDLSSDAP
notes: as for B1
B20: FITC-pKID R125A (peptide, UniProt P15337-1 116-146, looked up)
peptide: {FITC}-DSVTDSQKRAEILSRRP[pS]YRKILNDLSSDAP
notes: as for B1
B21: FITC-pKID R131A (peptide, UniProt P15337-1 116-146, looked up)
peptide: {FITC}-DSVTDSQKRREILSRAP[pS]YRKILNDLSSDAP
notes: as for B1
B22: FITC-pKID S121A (peptide, UniProt P15337-1 116-146, looked up)
peptide: {FITC}-DSVTDAQKRREILSRRP[pS]YRKILNDLSSDAP
notes: as for B1
B23: FITC-pKID L128A (peptide, UniProt P15337-1 116-146, looked up)
peptide: {FITC}-DSVTDSQKRREIASRRP[pS]YRKILNDLSSDAP
notes: as for B1
B24: FITC-pKID S142A (peptide, UniProt P15337-1 116-146, looked up)
peptide: {FITC}-DSVTDSQKRREILSRRP[pS]YRKILNDLASDAP
notes: as for B1
B25: FITC-pKID D140A (peptide, UniProt P15337-1 116-146, looked up)
peptide: {FITC}-DSVTDSQKRREILSRRP[pS]YRKILNALSSDAP
notes: as for B1
B26: FITC-pKID Y134A (peptide, UniProt P15337-1 116-146, looked up)
peptide: {FITC}-DSVTDSQKRREILSRRP[pS]ARKILNDLSSDAP
notes: as for B1
B27: FITC-pKID I137A (peptide, UniProt P15337-1 116-146, looked up)
peptide: {FITC}-DSVTDSQKRREILSRRP[pS]YRKALNDLSSDAP
notes: as for B1
B28: FITC-KID, not phosphorylated at Ser133 (CREB residues 116-146) (peptide, UniProt P15337-1 116-146, looked up)
peptide: {FITC}-DSVTDSQKRREILSRRPSYRKILNDLSSDAP
notes: 'pSer to Ser' in the text; also called ∆pS133; pS133S; source: synthetic peptide, bought: Biomatik

Each molecule was assayed against T1, KIX domain of CBP (UniProt P45481 586-666) (assay: fluorescence polarisation; equilibrium fluorescence anisotropy of N-terminally FITC-labelled pKID peptides with KIX; buffer and conditions as in the accompanying article (ref. 42)). Conditions: both partners purified.
T1 construct: PDB 1KDX is the cited pKID/KIX structure and need not have the same limits
T1 sequence (P45481 586-666): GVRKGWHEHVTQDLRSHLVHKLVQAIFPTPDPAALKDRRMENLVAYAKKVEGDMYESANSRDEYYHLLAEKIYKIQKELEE

fold increase of Kd against wild type	Molecule
~100 fold	B1
> 10 fold	B2
~1000 fold	B3
> 10 fold	B4

Each molecule was assayed against T2, KIX domain of CBP (UniProt P45481 586-665) (assay: stopped-flow fluorescence (association kinetics); pseudo-first order conditions with KIX in excess over FITC-pKID; biphasic; kass,fast = gradient of the observed fast rate against KIX concentration). Conditions: both partners purified.
T2 sequence (P45481 586-665): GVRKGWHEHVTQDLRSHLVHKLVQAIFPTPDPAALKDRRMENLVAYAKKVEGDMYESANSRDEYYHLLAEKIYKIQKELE

kon	Molecule
7.1e+06 M⁻¹ s⁻¹	B5
9.7e+06 M⁻¹ s⁻¹	B6
7.7e+06 M⁻¹ s⁻¹	B7
8.3e+06 M⁻¹ s⁻¹	B8
7.6e+06 M⁻¹ s⁻¹	B9
6.3e+06 M⁻¹ s⁻¹	B10
1.05e+07 M⁻¹ s⁻¹	B11
1.02e+07 M⁻¹ s⁻¹	B12
8e+06 M⁻¹ s⁻¹	B13
8.3e+06 M⁻¹ s⁻¹	B14
1.05e+07 M⁻¹ s⁻¹	B15
7.3e+06 M⁻¹ s⁻¹	B16

What follows are molecules tested against T2, KIX domain of CBP (assay: dissociation kinetics by competition; FITC-pKID displaced from KIX by unlabeled competitor cMybTAD; kdiss = asymptote of the observed dissociation rate against competitor concentration). Conditions: both partners purified.

koff	Molecule
0.67 s⁻¹	B5
0.71 s⁻¹	B6
0.99 s⁻¹	B7
10.5 s⁻¹	B8
2.09 s⁻¹	B9
1.2 s⁻¹	B10
2.5 s⁻¹	B11
0.94 s⁻¹	B12
10.1 s⁻¹	B13
3.22 s⁻¹	B14
0.97 s⁻¹	B15
0.88 s⁻¹	B16

These molecules were tested against T2, KIX domain of CBP (assay: fluorescence polarisation; equilibrium fluorescence anisotropy; KIX titrated into N-terminally FITC-labelled pKID peptide; biophysical buffer and conditions as in the accompanying article (ref. 42); KdEqub). Conditions: both partners purified.

Kd	Molecule
110 nM	B17
6300 nM	B18
60 nM	B19
220 nM	B20
1230 nM	B21
120 nM	B22
2490 nM	B23
120 nM	B24
260 nM	B25
111000 nM	B26
21600 nM	B27
28700 nM	B28

Target: T2, KIX domain of CBP
Test: as above
Conditions: both partners purified
Remark: another data set of the same source

Kd	Molecule
80 nM	B5
70 nM	B6
70 nM	B7
2160 nM	B8
250 nM	B9
90 nM	B10
100 nM	B11
100 nM	B12
1160 nM	B13
440 nM	B14
170 nM	B15
150 nM	B16

These molecules were tested against T2, KIX domain of CBP (assay: stopped-flow fluorescence (association kinetics) + dissociation kinetics by competition; KdKin calculated as kdiss/kass,fast). Conditions: both partners purified.

Kd	Molecule
110 ± 20 nM	B17
4730 ± 1920 nM	B18
60 ± 20 nM	B19
340 ± 30 nM	B20
810 ± 140 nM	B21
100 ± 20 nM	B22
2000 ± 160 nM	B23
70 ± 10 nM	B24
390 ± 50 nM	B25
9730 ± 1920 nM	B27
7500 ± 1300 nM	B28

Target: T2, KIX domain of CBP
Test: stopped-flow fluorescence (association kinetics); pseudo-first order conditions with KIX in excess over FITC-pKID; biphasic; kass,fast = gradient of the observed fast rate against KIX concentration
Conditions: both partners purified
Remark: another data set of the same source

kon	Molecule
7.3e+06 M⁻¹ s⁻¹	B17
2.8e+06 M⁻¹ s⁻¹	B18
8.4e+06 M⁻¹ s⁻¹	B19
6.3e+06 M⁻¹ s⁻¹	B20
9.5e+06 M⁻¹ s⁻¹	B21
6.9e+06 M⁻¹ s⁻¹	B22
7.9e+06 M⁻¹ s⁻¹	B23
1.13e+07 M⁻¹ s⁻¹	B24
5.3e+06 M⁻¹ s⁻¹	B25
4.5e+06 M⁻¹ s⁻¹	B27
7.6e+06 M⁻¹ s⁻¹	B28

Target: T2, KIX domain of CBP
Test: stopped-flow fluorescence (association kinetics) + dissociation kinetics by competition; KdKin calculated as kdiss/kass,fast
Conditions: both partners purified
Remark: another data set of the same source

Kd	Molecule
90 ± 10 nM	B5
70 ± 10 nM	B6
130 ± 10 nM	B7
1270 ± 250 nM	B8
280 ± 30 nM	B9
190 ± 20 nM	B10
240 ± 20 nM	B11
90 ± 10 nM	B12
1260 ± 70 nM	B13
390 ± 10 nM	B14
90 ± 10 nM	B15
120 ± 10 nM	B16

Target: T2, KIX domain of CBP
Test: dissociation kinetics by competition; FITC-pKID displaced from KIX by unlabeled competitor cMybTAD; kdiss = asymptote of the observed dissociation rate against competitor concentration
Conditions: both partners purified
Remark: another data set of the same source

koff	Molecule
0.81 s⁻¹	B17
13.2 s⁻¹	B18
0.51 s⁻¹	B19
2.17 s⁻¹	B20
7.66 s⁻¹	B21
0.71 s⁻¹	B22
15.7 s⁻¹	B23
0.83 s⁻¹	B24
2.06 s⁻¹	B25
43.9 s⁻¹	B27
56.7 s⁻¹	B28

The molecules below were run against KIX domain of CBP KIX domain (UniProt P45481) (assay: fluorescence anisotropy and stopped-flow kinetics). Conditions: reference: unphosphorylated KID peptide (Ser133); sites S133.
Chain of KIX domain of CBP KIX domain (P45481 whole entry, looked up, the tested form may be a part): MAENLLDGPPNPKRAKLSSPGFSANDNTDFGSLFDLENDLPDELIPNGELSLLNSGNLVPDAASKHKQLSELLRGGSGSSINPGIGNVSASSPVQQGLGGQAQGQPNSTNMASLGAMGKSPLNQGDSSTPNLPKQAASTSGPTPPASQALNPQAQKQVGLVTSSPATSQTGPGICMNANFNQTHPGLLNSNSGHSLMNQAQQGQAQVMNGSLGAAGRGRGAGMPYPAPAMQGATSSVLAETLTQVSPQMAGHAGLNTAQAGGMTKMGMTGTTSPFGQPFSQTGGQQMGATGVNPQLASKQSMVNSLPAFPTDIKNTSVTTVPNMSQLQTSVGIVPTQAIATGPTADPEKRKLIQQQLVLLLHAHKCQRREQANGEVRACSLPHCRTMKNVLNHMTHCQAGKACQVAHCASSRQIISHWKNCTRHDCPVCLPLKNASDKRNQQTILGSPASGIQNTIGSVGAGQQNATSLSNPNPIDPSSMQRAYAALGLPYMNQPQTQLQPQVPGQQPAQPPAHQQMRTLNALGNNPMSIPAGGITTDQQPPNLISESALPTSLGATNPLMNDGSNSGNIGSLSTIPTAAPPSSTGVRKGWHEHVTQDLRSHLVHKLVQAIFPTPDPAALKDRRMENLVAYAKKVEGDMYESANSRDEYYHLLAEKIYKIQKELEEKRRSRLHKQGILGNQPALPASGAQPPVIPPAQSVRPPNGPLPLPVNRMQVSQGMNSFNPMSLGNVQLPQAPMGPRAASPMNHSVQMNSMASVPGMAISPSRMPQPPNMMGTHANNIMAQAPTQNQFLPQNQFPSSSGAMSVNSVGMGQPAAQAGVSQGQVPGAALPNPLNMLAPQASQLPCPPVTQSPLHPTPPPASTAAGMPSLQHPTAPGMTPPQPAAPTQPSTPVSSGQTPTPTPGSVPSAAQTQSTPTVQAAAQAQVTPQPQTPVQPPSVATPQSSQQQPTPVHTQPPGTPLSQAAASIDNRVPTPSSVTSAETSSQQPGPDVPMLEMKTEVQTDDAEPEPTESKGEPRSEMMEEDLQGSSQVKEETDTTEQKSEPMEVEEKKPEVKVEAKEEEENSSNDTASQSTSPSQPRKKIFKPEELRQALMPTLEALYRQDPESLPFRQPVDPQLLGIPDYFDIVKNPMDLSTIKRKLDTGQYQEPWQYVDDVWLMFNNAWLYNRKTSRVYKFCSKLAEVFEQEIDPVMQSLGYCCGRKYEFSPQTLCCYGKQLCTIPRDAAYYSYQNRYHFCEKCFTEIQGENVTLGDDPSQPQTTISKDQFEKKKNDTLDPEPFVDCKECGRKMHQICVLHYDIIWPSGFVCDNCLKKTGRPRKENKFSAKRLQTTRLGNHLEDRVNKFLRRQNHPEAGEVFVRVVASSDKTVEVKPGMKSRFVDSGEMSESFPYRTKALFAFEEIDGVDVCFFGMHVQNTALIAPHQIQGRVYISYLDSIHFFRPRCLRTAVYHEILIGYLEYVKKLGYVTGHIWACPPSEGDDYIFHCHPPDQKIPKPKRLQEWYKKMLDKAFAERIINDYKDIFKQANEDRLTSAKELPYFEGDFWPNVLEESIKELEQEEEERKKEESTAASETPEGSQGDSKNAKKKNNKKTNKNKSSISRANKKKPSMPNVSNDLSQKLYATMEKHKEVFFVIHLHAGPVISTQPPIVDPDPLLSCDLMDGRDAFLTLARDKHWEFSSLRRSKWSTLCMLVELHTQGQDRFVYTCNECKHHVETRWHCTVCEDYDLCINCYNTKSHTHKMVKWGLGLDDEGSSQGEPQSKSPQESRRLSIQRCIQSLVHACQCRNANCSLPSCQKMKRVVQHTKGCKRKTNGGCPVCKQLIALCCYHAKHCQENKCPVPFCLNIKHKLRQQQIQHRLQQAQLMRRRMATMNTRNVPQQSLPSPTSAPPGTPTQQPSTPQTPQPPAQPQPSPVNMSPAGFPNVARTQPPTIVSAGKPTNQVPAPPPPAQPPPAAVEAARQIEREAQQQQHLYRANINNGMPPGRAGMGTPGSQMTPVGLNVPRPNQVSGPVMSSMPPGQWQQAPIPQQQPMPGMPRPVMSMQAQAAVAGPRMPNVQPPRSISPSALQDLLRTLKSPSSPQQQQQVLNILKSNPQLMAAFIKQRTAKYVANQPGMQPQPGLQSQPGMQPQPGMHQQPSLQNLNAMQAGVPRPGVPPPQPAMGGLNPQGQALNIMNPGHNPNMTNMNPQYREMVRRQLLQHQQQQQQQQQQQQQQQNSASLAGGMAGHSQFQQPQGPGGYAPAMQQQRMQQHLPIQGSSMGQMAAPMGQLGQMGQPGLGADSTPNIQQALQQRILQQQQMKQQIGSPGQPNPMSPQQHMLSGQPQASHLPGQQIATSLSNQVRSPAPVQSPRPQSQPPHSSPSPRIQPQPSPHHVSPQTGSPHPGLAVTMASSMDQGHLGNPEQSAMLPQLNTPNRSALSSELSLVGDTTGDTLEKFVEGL

binding against the reference	Molecule
stronger	CREB (KID / pKID region) 116-146 (from UniProt P15337-1) pSer133 pKID peptide
